# Reference: patent publication US20230203156A1, “ANTI-MDR1 ANTIBODIES AND USES THEREOF” (KENJOCKETY BIOTECHNOLOGY, INC., priority 2020, published 2023)
# Substitutions are numbered along the chain they refer to.
# B1: B1.129.huH1-huL1(KV3): humanized B1.129; VH SEQ ID NO:63, VL SEQ ID NO:64 (antibody, V domains shown)
# VH: EVQLVQSGAEVKKPGASVKVSCKASGYTFSTYVIHWVRQAPGQGLEWIGYIYPYNDYTKYNEKFKDRATLTSDKSTSTAYMELRSLRSDDTAVYYCSRAYYGNLVGYGVDYWGQGTTVTVSS
# VL: EIVLTQSPATLSLSPGERATLSCRASSSVSFIYWYQQKPGQSPRPWIFATSNLASGVPARFSGSGSGTDYTLTISSLEPEDFAVYYCHQWGSNLPTFGGGTKLEIK
# modifications: humanized sequence
# B2: B1.129.huH1-huL1(KV1): humanized B1.129; VH SEQ ID NO:63, VL SEQ ID NO:65 (antibody, V domains shown)
# VH: B1 VH
# VL: DIQLTQSPSSLSASVGDRVTITCRASSSVSFIYWYQQKPGKSPKPWIFATSNLASGVPSRFSGSGSGTDYTLTISSLQPEDFATYYCHQWGSNLPTFGGGTKLEIK
# modifications: humanized sequence
# B3: B1.226: anti-MDR1 antibody, Mouse; VH SEQ ID NO:112, VL SEQ ID NO:113 (antibody, listed as Mus musculus, V domains shown)
# VH: EVQLVESGGALVKPGGSLKLSCAASGFTFSNYAMSWVRQTPETRLEWVATISSGGSYTYYPDSVKGRFTISRDNAKNTLYLQMSSLRSEDTALYYCARYSNLAWFAYWGQGTLVTVSA
# VL: DVVMTQTPLSLPVSLGDQASISCRSSQSIVHSNGNTYLDWYLQKPGQSPKFMIYKVSNRFSGVPDRFSGSGSGTDFTLKISRVEAEDLGVYYCFQGSHVPYTFGGGTKLEIK
# B4: B1.225: anti-MDR1 antibody, Mouse; VH SEQ ID NO:105, VL SEQ ID NO:109 (antibody, listed as Mus musculus, V domains shown)
# VH: EVQLVESGGALVKPGGSLKLSCAASGFTFSNYGMSWVRQTPEKRLEWVATISSGGSYTYYPDTVKGRFTISRDNAKNTLHLQMSSLRSEDTALYYCARRGTNDAWFGYWGQGTLVTVSA
# VL: DVVMTQTPLSLPVSLGDQASISCRFSQSIVHSNGNTYLEWYLQKPGQSPKLLIYKVSNRFFGVPDRFSGSGSGTDFTLKISRVEAEDLGVYFCFQGSHVPQYTFGGGTKLEIK
# B5: B1.188: anti-MDR1 antibody, Mouse; VH SEQ ID NO:66, VL SEQ ID NO:79 (antibody, listed as Mus musculus, V domains shown)
# VH: EVMLVESGGALVKPGGSLKLSCAASGFTFSNYAMSWVRQTPEKRLEWVATISSGGSYTYYPDSVKGRFTISRDNARNTLYLQMSSLRSEDTAMYYCARGYGNFAWFAYWGQGTLVTVSA
# VL: B3 VL with V2I, V3Q, T7S, N33T, D39E, F51L, M52L, Y101F, G105S
# B6: B1.236: anti-MDR1 antibody, Mouse; VH SEQ ID NO:115, VL SEQ ID NO:116 (antibody, listed as Mus musculus, V domains shown)
# VH: EAQLVESGGALVKPGGSLKLSCSASGFTFSNYAMSWVRQTPEKRLEWVATISSGGTNTYYPGSVKGRFTIARDNAKNTLYLLMSSLRSEDTALYFCAKYSNLAWFASWGQGTLVTVSA
# VL: B3 VL with D1Q, V2I, M4L, T7S, I29L, N33I, D39E, M52L, Y54S, V90I
# B7: B1.198: anti-MDR1 antibody, Mouse; VH SEQ ID NO:88, VL SEQ ID NO:90 (antibody, listed as Mus musculus, V domains shown)
# VH: B3 VH with T43K, R98K, L102Y, A103G, W104R
# VL: B3 VL with H31D, D39E, F51L, M52L, S61F
# B8: B1.219: anti-MDR1 antibody, Mouse; VH SEQ ID NO:99, VL SEQ ID NO:101 (antibody, listed as Mus musculus, V domains shown)
# VH: B3 VH with T43K, G54V, N77T, S85G, R98K, L102Y, A103G, W104R, Y107S, A118T
# VL: DVLMTQTPLSLPASLGDQASISCRSSQSIVHSSGNTYLEWYLQKPGQSPRLLIYKVSNRFFGVPDRISGSGSGTDFTLRISRVEAEDLGVYYCFQGSHVPYTFGGGTKLEIE
# B9: B1.184: anti-MDR1 antibody, Mouse; VH SEQ ID NO:74, VL SEQ ID NO:76 (antibody, listed as Mus musculus, V domains shown)
# VH: B3 VH with E1G, T43K, N77T, S85G, R98K, L102Y, A103G, W104R, Y107S, A118T
# VL: B8 VL with A13V, E112K
# B10: B1.207: anti-MDR1 antibody, Mouse; VH SEQ ID NO:74, VL SEQ ID NO:76 (antibody, listed as Mus musculus, V domains shown)
# VH: B3 VH with E1G, T43K, N77T, S85G, R98K, L102Y, A103G, W104R, Y107S, A118T
# VL: B8 VL with A13V, E112K
# B11: B1.201: anti-MDR1 antibody, Mouse; VH SEQ ID NO:92, VL SEQ ID NO:95 (antibody, listed as Mus musculus, V domains shown)
# VH: EVQLVESGGALMKPGGSLKFSCAASGFTFTNYAMSWVRQTPEKRLEWVATISSGGSNTYYSDSVKGRFTISRDNAKTTLYLQMSGLRSEDTALYYCAKFSNFGRFASWGQGTLVTVSA
# VL: B8 VL with A13V, S25F, E112K
# B12: B1-open.273(A): anti-MDR1 antibody, Mouse; VH SEQ ID NO:155, VL SEQ ID NO:159 (antibody, listed as Mus musculus, V domains shown)
# VH: QVQLQQSGPELVKTGASVKISCKASGYSFSNYYIHWVKQSHGKSLEWIGFISCYNGATFYNQKFKGKATFTVDTSSSTAYMKFNSLTFEDSAVYYCARLPIQFGNFYPMDYWGQGTSVTVSS
# VL: QIVLTQSPAIMSASLGERVTMTCTASSSVSSSYLHWYQQKPGSSPKLWIYSTSNLASGVPARFSGSGSGTSYSLTISSMEAEDAATYYCHQYHRSPPTFGAGTKLELK
# Target: T1, human MDR1 (Homo sapiens, UniProt P08183)
# T1 construct: expressed in transfected cells
# Test: Antibody binding/titration to 293T cells overexpressing human MDR1 (FACS)
# Conditions: 293T cell line overexpressing human MDR1
# Method: Antibody binding to cells was evaluated by flow cytometry. 293T cells stably transfected to express human ABCB1 (293T_KPB1_OX) were washed once in flow cytometry buffer (PBS + 2% FBS + 0.02% sodium azide), resuspended at 2 x 10 \^6 cells/mL in flow cytometry buffer, and dispensed into 96-well microtiter plates at 0.1 mL/well. In the figures, “B1” refers to ABCB1 (also known as MDR1 or Pgp). Recombinant antibodies were added to cells at 5 ug/mL for initial binding confirmation, or serially diluted from 100 ug/mL in flow cytometry buffer. After incubating cells on ice for 30 min, cells were washed twice with flow cytometry buffer. Bound antibody was detected with PE-labeled F(ab′)2 fragment goat anti-human IgG (Jackson ImmunoResearch) and evaluated on an Attune NxT flow cytometer.
# Binding titration of recombinant antibodies to ABCB1 transfectants was performed by 3-fold serial dilution of antibodies from 666.7 nM. Diluted antibody in flow cytometry buffer was incubated with cells on ice for 30 min. After 2 washes with flow cytometry buffer, bound antibody was detected with PE-labeled F(ab′)2 fragment goat anti-human IgG (Jackson ImmunoResearch) diluted 1:200 in flow cytometry buffer and incubated with cells for 20 min on ice. After 2 washes with flow cytometry buffer fluorescence was measured on an Attune NxT flow cytometer. Data were analyzed with GraphPad Prism 8.0 software to determine EC50′s.
# (§1) Anti-MDR1 mAb B1.129 and a humanized version thereof were assessed for binding to 293T cell line overexpressing human MDR1 or to 293T cells transfected with cynomolgus MDR1. […] B1.129.hz1 and B1.129.hz2 antibodies are the same as the humanized versions B1.129.huH1-huL1(KV3) and B1.129.huH1-huL1(KV1), respectively, listed in Table 2. FIG. 10C summarizes the binding data for the B1.129 antibody.
row,Molecule,binding to human MDR1 (hB1)
1,B1,binds to both hB1 and cB1 with a lower affinity
2,B2,did not show significant binding

# Test system: cynomolgus MDR1
# Test: Antibody binding to 293T cells transfected with cynomolgus MDR1
# Conditions: not given
# Method: as §1
# Anti-MDR1 mAb B1.28 and a humanized version thereof were assessed for binding to 293T cell line overexpressing human MDR1 or to 293T cells transfected with cynomolgus MDR1.
# Sequence of cynomolgus MDR1 (as listed by the source): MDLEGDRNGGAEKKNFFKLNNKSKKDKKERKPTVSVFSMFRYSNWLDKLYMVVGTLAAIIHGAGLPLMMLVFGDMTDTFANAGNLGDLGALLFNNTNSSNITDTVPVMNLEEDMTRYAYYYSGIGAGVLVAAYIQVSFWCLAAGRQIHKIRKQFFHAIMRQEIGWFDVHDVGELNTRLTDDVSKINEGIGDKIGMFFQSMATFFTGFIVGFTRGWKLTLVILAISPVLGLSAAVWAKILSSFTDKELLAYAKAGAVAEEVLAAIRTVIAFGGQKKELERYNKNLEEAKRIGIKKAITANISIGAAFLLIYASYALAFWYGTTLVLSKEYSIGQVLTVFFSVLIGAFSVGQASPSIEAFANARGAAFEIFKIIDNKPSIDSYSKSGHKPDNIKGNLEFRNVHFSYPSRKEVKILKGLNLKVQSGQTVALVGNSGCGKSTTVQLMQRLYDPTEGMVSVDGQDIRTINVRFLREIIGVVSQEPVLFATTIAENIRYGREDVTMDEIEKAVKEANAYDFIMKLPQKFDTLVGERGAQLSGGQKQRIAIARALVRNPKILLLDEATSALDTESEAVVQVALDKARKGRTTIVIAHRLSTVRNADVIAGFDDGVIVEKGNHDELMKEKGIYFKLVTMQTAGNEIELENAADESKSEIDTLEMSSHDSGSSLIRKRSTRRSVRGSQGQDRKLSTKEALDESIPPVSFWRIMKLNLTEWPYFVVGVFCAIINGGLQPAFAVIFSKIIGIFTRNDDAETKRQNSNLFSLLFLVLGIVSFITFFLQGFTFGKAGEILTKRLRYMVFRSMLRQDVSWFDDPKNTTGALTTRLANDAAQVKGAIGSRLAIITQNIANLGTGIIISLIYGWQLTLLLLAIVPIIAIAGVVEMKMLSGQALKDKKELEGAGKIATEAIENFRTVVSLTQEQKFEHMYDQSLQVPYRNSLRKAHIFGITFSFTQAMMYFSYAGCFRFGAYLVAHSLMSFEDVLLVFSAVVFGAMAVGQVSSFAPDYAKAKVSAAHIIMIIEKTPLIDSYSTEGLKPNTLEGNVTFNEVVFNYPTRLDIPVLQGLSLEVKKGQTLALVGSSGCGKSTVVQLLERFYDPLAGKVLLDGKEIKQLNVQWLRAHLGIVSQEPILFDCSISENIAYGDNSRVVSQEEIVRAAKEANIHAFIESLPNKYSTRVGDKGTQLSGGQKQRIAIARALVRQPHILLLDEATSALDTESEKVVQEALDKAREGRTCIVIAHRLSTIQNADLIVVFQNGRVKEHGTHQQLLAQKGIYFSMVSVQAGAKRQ
row,Molecule,binding to cynomolgus MDR1 (cB1)
1,B1,binds to both hB1 and cB1 with a lower affinity
2,B2,did not show significant binding

# Test system: A2780 ADR ovarian carcinoma
# Test: A2780 ADR drug-resistant ovarian carcinoma model in nude mice
# Type: in vivo
# Conditions: antibody as a single agent
# Method: Anti-ABCB1 antibodies B1.129, B1.261, B1.223, B1.225, B1.188, B1.28, and B1.226 were tested for effect on growth of tumors in immunodeficient mice. The following cancer cell lines were used for generating tumor models.
# A2780 ADR: The adriamycin-resistant cell line A2780ADR has been developed by exposure of the parent A2780 cell line (Sigma catalogue no. 93112519) to adriamycin. A2780ADR is cross-resistant to melphalan and vinblastine. To retain resistance adriamycin has to be added to the media. The cells grow as a monolayer and in suspension in spinner cultures and are tumorigenic in immune deficient mice. Together with the cisplatin-resistant variant A2780cis these lines only differ in their exposure to a single drug and should facilitate the search for molecular changes responsible for the expression of pleiotropic drug resistance in human ovarian cancer.
# Nude mice were implanted with A2780 ADR cells to model ovarian carcinoma. Anti-B1 monoclonal antibodies are efficacious in A2780 ADR ovarian carcinoma model in nude mice.
row,Molecule,"tumor volume, single agent"
1,B3,decreased tumor volume
2,B4,decreased tumor volume
3,B5,decreased tumor volume

# Same assay, conditions: antibody plus paclitaxel
row,Molecule,"tumor volume, in combination with paclitaxel"
1,B3,decreased tumor volume
2,B4,decreased tumor volume
3,B5,decreased tumor volume

# Target: T2, human MDR1 extracellular loops 1 and 4 (ECD1, ECD4) (Homo sapiens, UniProt P08183)
# T2 construct: FLAG (C); expressed in transfected cells; host or cells: 293T
# Test: Epitope mapping with mutant human MDR1 expressed on 293T cells (flow cytometry)
# Type: binding
# Conditions: extracellular loop 1 and extracellular loop 4
# From the text: To determine binding of anti-MDR1 mAbs listed in Table 2 to the two major extracellular loops 1 and 4 of MDR1, various mutations were constructed to alter or substitute these two loops. To examine binding to cynomolgus extracellular loops, the extracellular loop 1 and/or loop 4 of cynomolgus MDR1 were grafted (with a C-terminal FLAG tag) to substitute for the human loops in the human MDR1 using standard techniques. To examine binding dependence on the normal human loops, MDR1 variants with deletion 79-102 and deletion 82-99 in loop 1 were also generated. Loop 1 is also referred to as ECD1. Loop 4 is also referred to as ECD4. These mutant MDR1 efflux pump variants were expressed on 293T cells using standard methods to generate cells that could be used to distinguish binding of various anti-MDR1 mAbs. The different cells were incubated with different anti-MDR1 mAbs for about 1 hour at 4° C. The cells were washed twice with FACS buffer (PBS containing 0.5% BSA). Alexa647 labeled goat anti-human antibody was added as a secondary antibody, and the samples were incubated on ice for another 1 hour. Samples were washed again and analyzed by flow cytometry.
# FIG. 9 summarizes the findings from preliminary epitope mapping using mutant human MDR1. […] For example, anti-MDR1 mAb B1.129 requires ECD1 and ECD4 for binding to human MDR1. All of the anti-MDR1 antibodies contact ECD4. […] ECD1 refers to the first extracellular domain of human ABCB1, ECD4 refers to the fourth extracellular domain of human ABCB1 and “others” refers to the remainder of the extracellular domains 2-3 and 5-6 of human ABCB1. Only binding to ECD1 and ECD4 was tested.
row,Molecule,epitope on human MDR1
1,B6,bind to an epitope comprising extracellular loop 1 and extracellular loop 4
2,B7,bind to an epitope comprising extracellular loop 1 and extracellular loop 4
3,B8,bind to an epitope comprising extracellular loop 1 and extracellular loop 4
4,B9,bind to an epitope comprising extracellular loop 1 and extracellular loop 4
5,B10,bind to an epitope comprising extracellular loop 1 and extracellular loop 4
6,B11,bind to an epitope comprising extracellular loop 1 and extracellular loop 4
7,B12,bind to an epitope comprising extracellular loop 1 and extracellular loop 4
